Source: paper PMC9482650, “Quantitative fragmentomics allow affinity mapping of interactomes” (Nature Communications, 2022)

T1: RAPGEF6, Q8TEU7
T1 sequence (Q8TEU7 525-625, limits assumed, looked up): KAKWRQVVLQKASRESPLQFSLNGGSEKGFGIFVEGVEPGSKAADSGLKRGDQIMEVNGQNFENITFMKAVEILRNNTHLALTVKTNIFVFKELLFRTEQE

T2: GRIP1_4, Q9Y3R0
T2 sequence (Q9Y3R0 467-571, limits assumed, looked up): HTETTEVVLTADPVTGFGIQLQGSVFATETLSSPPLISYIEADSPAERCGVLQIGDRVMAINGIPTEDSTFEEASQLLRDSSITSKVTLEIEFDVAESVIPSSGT

T3: MPP7, Q5T2T1
T3 sequence (Q5T2T1 134-230, limits assumed, looked up): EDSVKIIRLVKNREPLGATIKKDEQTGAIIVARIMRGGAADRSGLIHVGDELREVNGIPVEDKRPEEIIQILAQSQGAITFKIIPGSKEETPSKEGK

T4: SNTG1, Q9NSN8
T4 sequence (Q9NSN8 52-150, limits assumed, looked up): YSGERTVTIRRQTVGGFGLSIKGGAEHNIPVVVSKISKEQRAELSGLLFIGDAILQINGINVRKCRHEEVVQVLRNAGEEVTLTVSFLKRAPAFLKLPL

T5: APBA1_1, Q02410
T5 sequence (Q02410 651-752, limits assumed, looked up): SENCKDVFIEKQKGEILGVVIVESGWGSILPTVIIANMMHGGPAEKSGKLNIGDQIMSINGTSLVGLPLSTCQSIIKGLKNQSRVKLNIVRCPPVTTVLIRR

T6: MPP6, Q9NZW5
T6 sequence (Q9NZW5 125-219, limits assumed, looked up): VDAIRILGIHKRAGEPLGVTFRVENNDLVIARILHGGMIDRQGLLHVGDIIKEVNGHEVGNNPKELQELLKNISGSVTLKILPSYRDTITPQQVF

T7: LIN7A, O14910
T7 sequence (O14910 103-200, limits assumed, looked up): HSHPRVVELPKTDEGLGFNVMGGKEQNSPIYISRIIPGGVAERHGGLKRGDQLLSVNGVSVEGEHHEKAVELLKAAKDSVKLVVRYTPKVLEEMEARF

T8: DLG3_3, Q92796
T8 sequence (Q92796 374-475, limits assumed, looked up): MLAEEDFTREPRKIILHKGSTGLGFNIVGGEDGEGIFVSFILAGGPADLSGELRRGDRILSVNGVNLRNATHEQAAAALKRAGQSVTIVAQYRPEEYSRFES


Legend:
Test in all cases: holdup assay
Set-up in all cases: key: below the threshold = too weak to quantify, mostly under pKd 3.1 to 4
Conditions in all cases: plain residues with an end cap or a label only (N-terminal biotin on a linker: ado-ado)
FRMPD3, Q5JV73 = molecular target: FRMPD3, Q5JV73
GRIP2_4, Q9C0E4 = molecular target: GRIP2_4, Q9C0E4
MAGI1_2, Q96QZ7 = molecular target: MAGI1_2, Q96QZ7
PDZRN4_1, Q6ZMN7 = molecular target: PDZRN4_1, Q6ZMN7
HTRA1, Q92743 = molecular target: HTRA1, Q92743
GRIP2_6, Q9C0E4 = molecular target: GRIP2_6, Q9C0E4
RAPGEF6, Q8TEU7 = molecular target: T1, RAPGEF6, Q8TEU7
CASK, O14936 = molecular target: CASK, O14936
GRIP1_4, Q9Y3R0 = molecular target: T2, GRIP1_4, Q9Y3R0
NHERF4_4, Q86UT5 = molecular target: NHERF4_4, Q86UT5
LDB3, O75112 = molecular target: LDB3, O75112
Inadl_9, Q8NI35 = molecular target: Inadl_9, Q8NI35
MAGI1_1, Q96QZ7 = molecular target: MAGI1_1, Q96QZ7
GRIP2_5, Q9C0E4 = molecular target: GRIP2_5, Q9C0E4
DLG1_3, Q12959 = molecular target: DLG1_3, Q12959
MPP7, Q5T2T1 = molecular target: T3, MPP7, Q5T2T1
SNTG1, Q9NSN8 = molecular target: T4, SNTG1, Q9NSN8
MAST1, Q9Y2H9 = molecular target: MAST1, Q9Y2H9
LNX1_1, Q8TBB1 = molecular target: LNX1_1, Q8TBB1
FRMPD2_1, Q68DX3 = molecular target: FRMPD2_1, Q68DX3
IL16_4, Q14005 = molecular target: IL16_4, Q14005
APBA1_1, Q02410 = molecular target: T5, APBA1_1, Q02410
LIMK2, P53671 = molecular target: LIMK2, P53671
LNX1_3, Q8TBB1 = molecular target: LNX1_3, Q8TBB1
IL16_3, Q14005 = molecular target: IL16_3, Q14005
MPP6, Q9NZW5 = molecular target: T6, MPP6, Q9NZW5
LIN7A, O14910 = molecular target: T7, LIN7A, O14910
DLG3_3, Q92796 = molecular target: T8, DLG3_3, Q92796
HTRA2, O43464 = molecular target: HTRA2, O43464
HTRA2, O43464, sequence (O43464 355-458): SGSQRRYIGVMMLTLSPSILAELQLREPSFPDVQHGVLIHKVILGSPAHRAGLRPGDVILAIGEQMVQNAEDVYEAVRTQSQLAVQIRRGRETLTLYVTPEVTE

IL16_3, Q14005, sequence (Q14005 1107-1207): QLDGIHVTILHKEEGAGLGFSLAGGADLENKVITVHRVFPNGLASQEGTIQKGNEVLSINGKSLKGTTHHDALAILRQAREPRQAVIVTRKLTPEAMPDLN
NHERF4_4, Q86UT5, sequence (Q86UT5 464-550): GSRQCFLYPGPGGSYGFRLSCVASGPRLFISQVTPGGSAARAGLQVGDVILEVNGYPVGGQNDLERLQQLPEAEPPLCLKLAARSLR
LNX1_1, Q8TBB1, sequence (Q8TBB1 261-371): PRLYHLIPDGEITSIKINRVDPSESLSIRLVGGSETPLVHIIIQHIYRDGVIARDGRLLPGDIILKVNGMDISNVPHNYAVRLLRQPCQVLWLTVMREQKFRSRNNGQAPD
MAST1, Q9Y2H9, sequence (Q9Y2H9 962-1065): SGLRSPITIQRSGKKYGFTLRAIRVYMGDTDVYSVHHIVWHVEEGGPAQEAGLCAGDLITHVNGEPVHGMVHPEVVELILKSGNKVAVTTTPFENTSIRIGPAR
PDZRN4_1, Q6ZMN7, sequence (Q6ZMN7 213-318): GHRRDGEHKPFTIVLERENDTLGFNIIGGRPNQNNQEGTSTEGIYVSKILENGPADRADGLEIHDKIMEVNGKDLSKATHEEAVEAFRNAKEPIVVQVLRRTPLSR
LDB3, O75112, sequence (O75112 1-94): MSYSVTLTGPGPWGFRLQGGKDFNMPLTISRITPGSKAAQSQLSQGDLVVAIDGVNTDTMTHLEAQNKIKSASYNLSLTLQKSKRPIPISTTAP
CASK, O14936, sequence (O14936 487-570): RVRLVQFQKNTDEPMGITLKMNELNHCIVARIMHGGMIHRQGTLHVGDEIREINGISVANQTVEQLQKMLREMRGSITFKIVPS
FRMPD3, Q5JV73, sequence (Q5JV73 12-100): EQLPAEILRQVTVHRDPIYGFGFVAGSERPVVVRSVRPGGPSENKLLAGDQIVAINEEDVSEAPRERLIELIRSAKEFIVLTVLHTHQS
IL16_4, Q14005, sequence (Q14005 1229-1329): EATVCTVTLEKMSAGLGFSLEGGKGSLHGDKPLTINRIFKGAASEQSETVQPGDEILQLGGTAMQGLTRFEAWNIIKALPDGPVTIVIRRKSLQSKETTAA
HTRA1, Q92743, sequence (Q92743 360-477): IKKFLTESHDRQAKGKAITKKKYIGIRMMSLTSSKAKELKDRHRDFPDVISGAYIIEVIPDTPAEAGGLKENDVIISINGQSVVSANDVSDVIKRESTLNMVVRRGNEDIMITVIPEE
LIMK2, P53671, sequence (P53671 143-248): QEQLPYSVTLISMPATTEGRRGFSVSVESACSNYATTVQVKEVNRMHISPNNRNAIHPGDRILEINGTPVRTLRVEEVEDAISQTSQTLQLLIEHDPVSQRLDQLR
LNX1_3, Q8TBB1, sequence (Q8TBB1 500-596): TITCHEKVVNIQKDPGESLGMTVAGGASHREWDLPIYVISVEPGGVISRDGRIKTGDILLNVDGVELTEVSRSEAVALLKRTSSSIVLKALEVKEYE
GRIP2_5, Q9C0E4, sequence (Q9C0E4 544-642): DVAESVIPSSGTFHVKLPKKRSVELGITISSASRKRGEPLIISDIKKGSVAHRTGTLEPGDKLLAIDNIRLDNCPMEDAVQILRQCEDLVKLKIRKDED
MAGI1_1, Q96QZ7, sequence (Q96QZ7 1-106): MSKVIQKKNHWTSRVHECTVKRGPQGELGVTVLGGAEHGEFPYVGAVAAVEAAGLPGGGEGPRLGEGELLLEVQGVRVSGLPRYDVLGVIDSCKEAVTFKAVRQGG
FRMPD2_1, Q68DX3, sequence (Q68DX3 770-861): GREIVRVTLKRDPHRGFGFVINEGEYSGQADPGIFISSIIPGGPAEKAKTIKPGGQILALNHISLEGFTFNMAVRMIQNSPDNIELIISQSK
Inadl_9, Q8NI35, sequence (Q8NI35 1530-1615): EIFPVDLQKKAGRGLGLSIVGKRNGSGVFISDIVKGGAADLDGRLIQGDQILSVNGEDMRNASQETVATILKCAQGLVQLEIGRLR
MAGI1_2, Q96QZ7, sequence (Q96QZ7 456-580): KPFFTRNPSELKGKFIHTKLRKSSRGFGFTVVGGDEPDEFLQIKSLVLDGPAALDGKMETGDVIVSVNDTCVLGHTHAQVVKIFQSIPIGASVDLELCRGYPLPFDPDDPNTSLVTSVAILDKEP
GRIP2_4, Q9C0E4, sequence (Q9C0E4 446-548): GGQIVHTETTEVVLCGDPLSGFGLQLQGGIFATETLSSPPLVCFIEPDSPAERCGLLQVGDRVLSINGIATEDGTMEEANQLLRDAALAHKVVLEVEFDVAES
GRIP2_6, Q9C0E4, sequence (Q9C0E4 648-740): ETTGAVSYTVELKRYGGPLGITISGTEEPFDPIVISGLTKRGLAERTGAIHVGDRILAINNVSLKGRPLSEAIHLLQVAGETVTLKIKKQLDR
DLG1_3, Q12959, sequence (Q12959 457-571): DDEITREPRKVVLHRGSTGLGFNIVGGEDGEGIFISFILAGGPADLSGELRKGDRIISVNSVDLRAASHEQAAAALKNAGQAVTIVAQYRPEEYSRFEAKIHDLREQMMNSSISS

Binder | pKd (FRMPD3, Q5JV73) | pKd (GRIP2_4, Q9C0E4) | pKd (MAGI1_2, Q96QZ7) | pKd (PDZRN4_1, Q6ZMN7) | pKd (HTRA1, Q92743) | pKd (GRIP2_6, Q9C0E4) | pKd (RAPGEF6, Q8TEU7) | pKd (CASK, O14936) | pKd (GRIP1_4, Q9Y3R0) | pKd (NHERF4_4, Q86UT5) | pKd (LDB3, O75112) | pKd (Inadl_9, Q8NI35) | pKd (MAGI1_1, Q96QZ7) | pKd (GRIP2_5, Q9C0E4) | pKd (DLG1_3, Q12959) | pKd (MPP7, Q5T2T1) | pKd (SNTG1, Q9NSN8) | pKd (MAST1, Q9Y2H9) | pKd (LNX1_1, Q8TBB1) | pKd (FRMPD2_1, Q68DX3) | further results
KKTPVSRSHL [SLC22A3, O75751] | below the threshold | below the threshold | 3.62 | 3.66 | 3.61 | below the threshold | below the threshold | below the threshold | below the threshold | below the threshold | below the threshold | below the threshold | below the threshold | below the threshold | below the threshold | below the threshold | below the threshold | below the threshold | below the threshold | below the threshold | pKd (IL16_4, Q14005): below the threshold; pKd (APBA1_1, Q02410): below the threshold; pKd (LIMK2, P53671): below the threshold; pKd (LNX1_3, Q8TBB1): below the threshold; pKd (IL16_3, Q14005): below the threshold; pKd (MPP6, Q9NZW5): below the threshold; pKd (LIN7A, O14910): below the threshold; pKd (DLG3_3, Q92796): below the threshold; pKd (HTRA2, O43464): below the threshold
HDDYFYHDEL [RCN2, Q14257] | below the threshold | below the threshold | below the threshold | below the threshold | 3.98 | below the threshold | below the threshold | below the threshold | below the threshold | below the threshold | 4.09 | below the threshold | below the threshold | below the threshold | below the threshold | below the threshold | below the threshold | 4.35 | below the threshold | below the threshold | pKd (IL16_4, Q14005): below the threshold; pKd (APBA1_1, Q02410): below the threshold; pKd (LIMK2, P53671): below the threshold; pKd (LNX1_3, Q8TBB1): below the threshold; pKd (IL16_3, Q14005): below the threshold; pKd (MPP6, Q9NZW5): 3.74; pKd (LIN7A, O14910): below the threshold; pKd (DLG3_3, Q92796): below the threshold; pKd (HTRA2, O43464): below the threshold
KAEEKPPSKV [SCN4B, Q8IWT1] | below the threshold | below the threshold | below the threshold | below the threshold | below the threshold | below the threshold | below the threshold | below the threshold | below the threshold | below the threshold | below the threshold | 3.8 | below the threshold | below the threshold | below the threshold | below the threshold | below the threshold | 3.69 | 3.49 | below the threshold | pKd (IL16_4, Q14005): 3.65; pKd (APBA1_1, Q02410): below the threshold; pKd (LIMK2, P53671): below the threshold; pKd (LNX1_3, Q8TBB1): below the threshold; pKd (IL16_3, Q14005): below the threshold; pKd (MPP6, Q9NZW5): below the threshold; pKd (LIN7A, O14910): below the threshold; pKd (DLG3_3, Q92796): below the threshold; pKd (HTRA2, O43464): below the threshold
